Numbered stars: 1 amine (or outer) side, 2 acyl side, 3 side chain; on linkers, the order of the positions; unused ones are H or OH. Square brackets hold non-standard residues; d marks the D form. Side chains are listed from the residue outwards. dextran = polysaccharide of α-(1–6)-linked D-glucose units with low branching; Propanoyl(3-triazol-4-yl) = O=C(CCc1cn([*:1])nn1)[*:2]
Biological target: T1, RGD-decorated Fc-dextran-MMAE construct 20 (cyclo[RGDfK] multimer) (also: multivalent on dextran conjugated to aglycosylated human Fc N297A with MMAE)
T1 chain: cyclo(RGD[dF]K([Propanoyl(3-triazol-4-yl)-dextran]))
Assay: flow cytometry cell binding (apparent KD)

B1: integrin alpha-v beta-3 (on U87MG cells) (protein)
chain 1: FNLDVDSPAEYSGPEGSYFGFAVDFFVPSASSRMFLLVGAPKANTTQPGIVEGGQVLKCDWSSTRRCQPIEFDATGNRDYAKDDPLEFKSHQWFGASVRSKQDKILACAPLYHWRTEMKQEREPVGTCFLQDGTKTVEYAPCRSQDIDADGQGFCQGGFSIDFTKADRVLLGGPGSFYWQGQLISDQVAEIVSKYDPNVYSIKYNNQLATRTAQAIFDDSYLGYSVAVGDFNGDGIDDFVSGVPRAARTLGMVYIYDGKNMSSLYNFTGEQMAAYFGFSVAATDINGDDYADVFIGAPLFMDRGSDGKLQEVGQVSVSLQRASGDFQTTKLNGFEVFARFGSAIAPLGDLDQDGFNDIAIAAPYGGEDKKGIVYIFNGRSTGLNAVPSQILEGQWAARSMPPSFGYSMKGATDIDKNGYPDLIVGAFGVDRAILYRARPVITVNAGLEVYPSILNQDNKTCSLPGTALKVSCFNVRFCLKADGKGVLPRKLNFQVELLLDKLKQKGAIRRALFLYSRSPSHSKNMTISRGGLMQCEELIAYLRDESEFRDKLTPITIFMEYRLDYRTAADTTGLQPILNQFTPANISRQAHILLDCGEDNVCKPKLEVSVDSDQKKIYIGDDNPLTLIVKAQNQGEGAYEAELIVSIPLQADFIGVVRNNEALARLSCAFKTENQTRQVVCDLGNPMKAGTQLLAGLRFSVHQQSEMDTSVKFDLQIQSSNLFDKVSPVVSHKVDLAVLAAVEIRGVSSPDHVFLPIPNWEHKENPETEEDVGPVVQHIYELRNNGPSSFSKAMLHLQWPYKYNNNTLLYILHYDIDGPMNCTSDMEINPLRIKISSLQTTEKNDTVAGQGERDHLITKRDLALSEGDIHTLGCGVAQCLKIVCQVGRLDRGKSAILYVKSLLWTETFMNKENQNHSYSLKSSASFNVIEFPYKNLPIEDITNSTLVTTNVTWGIQPAPMPV
chain 2: GPNICTTRGVSSCQQCLAVSPMCAWCSDEALPLGSPRCDLKENLLKDNCAPESIEFPVSEARVLEDRPLSDKGSGDSSQVTQVSPQRIALRLRPDDSKNFSIQVRQVEDYPVDIYYLMDLSYSMKDDLWSIQNLGTKLATQMRKLTSNLRIGFGAFVDKPVSPYMYISPPEALENPCYDMKTTCLPMFGYKHVLTLTDQVTRFNEEVKKQSVSRNRDAPEGGFDAIMQATVCDEKIGWRNDASHLLVFTTDAKTHIALDGRLAGIVQPNDGQCHVGSDNHYSASTTMDYPSLGLMTEKLSQKNINLIFAVTENVVNLYQNYSELIPGTTVGVLSMDSSNVLQLIVDAYGKIRSKVELEVRDLPEELSLSFNATCLNNEVIPGLKSCMGLKIGDTVSFSIEAKVRGCPQEKEKSFTIKPVGFKDSLIVQVTFDCDCACQAQAEPNSHRCNNGNGTFECGVCRCGPGWLGSQCECSEEDYRPSQQDECSPREGQPVCSQRGECLCGQCVCHSSDFGKITGKYCECDDFSCVRYKGEMCSGHGQCSCGDCLCDSDWTGYYCNCTTRTDTCMSSNGLLCSGRGKCECGSCVCIQPGSYGDTCEKCPTCPDACTFKKECVECKKFDRGALHDENTCNRYCRDEIESVKELKDTGKDAVNCTYKNEDDCVVRFQYYEDSSGKSILYVVEEPECPKGPD
Kd: 33 nM

Source: publication PMC8339797 (2021)
